The record followed here is publication doi:10.1101/2024.10.30.620795 (2024).

The labels stand for the following.
B1: 6844 (TCR)
alpha TRAV12-3 TRAJ33 CDR3: CAGRSNYQLIW
beta TRBV30 TRBJ2-7 CDR3: CAWSPSGSPLEQYF
B2: 832 (TCR)
alpha TRAV13-1 TRAJ6 CDR3: CAAGSSGGSYIPTF
beta TRBV7-7 TRBJ2-1 CDR3: CASSLEGHRGLYNEQFF
B3: 317 (TCR)
alpha TRAV12-3 TRAJ33 CDR3: CAMRSNYQLIW
beta TRBV6-5 TRBJ2-7 CDR3: CASSYAQGEQYF
B4: 841.2 (TCR)
alpha TRAV25 TRAJ38 CDR3: CAGPINAGNNRKLIW
beta TRBV6-5 TRBJ2-7 CDR3: CASSLDRVRGNSYEQYF
B5: 6265 (TCR)
alpha TRAV30 TRAJ49 CDR3: CGTAPLTGNQFYF
beta TRBV18 TRBJ1-1 CDR3: CASSHSGTAYTEAFF
B6: 718 (TCR)
alpha TRAV3 TRAJ45 CDR3: CAVRQTGGGADGLTF
beta TRBV29-1 TRBJ2-2 CDR3: CSVPGLVYPGELFF
B7: 7287 (TCR)
alpha TRAV16 TRAJ17 CDR3: CALRSPAAGNKLTF
beta TRBV27 TRBJ2-5 CDR3: CASSFAEGTQYF
B8: 5251 (TCR)
alpha TRAV12-2 TRAJ53 CDR3: CAVNGGGGSNYKLTF
beta TRBV29-1 TRBJ2-7 CDR3: CSVGTGWPYEQYF
B9: 10832 (TCR)
alpha TRAV12-2 TRAJ53 CDR3: CAVNPRGGGSNYKLTF
beta TRBV29-1 TRBJ2-7 CDR3: CSAQTAWPYEQYF
B10: 11155 (TCR)
alpha TRAV16 TRAJ37 CDR3: CALNSNTGKLIF
beta TRBV27 TRBJ2-1 CDR3: CASSSFLLAGGGGNSNEQFF
B11: 545 (TCR)
alpha TRAV38-1 TRAJ23 CDR3: CALRGNQGGKLIF
beta TRBV7-9 TRBJ2-7 CDR3: CASSPDGMHEQYF
B12: 6743 (TCR)
alpha TRAV5 TRAJ15 CDR3: CAGSRTGTALIF
beta TRBV27 TRBJ2-6 CDR3: CASSTGIVTGANVLTF
B13: 3936 (TCR)
alpha TRAV12-3 TRAJ33 CDR3: CAMRSNYQLIW
beta TRBV27 TRBJ2-3 CDR3: CASSPSQGTQYF
B14: 6808 (TCR)
alpha TRAV17 TRAJ45 CDR3: CATKRGADGLTF
beta TRBV6-5 TRBJ1-2 CDR3: CASSYGGDVYGYTF
B15: 11870 (TCR)
alpha TRAV12-1 TRAJ9 CDR3: CVVNRGTGGFKTIF
beta TRBV27 TRBJ1-6 CDR3: CASMLASYNSPLHF
B16: 4350 (TCR)
alpha TRAV29/DV5 TRAJ42 CDR3: CAASLNYGGSQGNLIF
beta TRBV19 TRBJ1-1 CDR3: CASSSKDITVTEAFF
B17: 6254 (TCR)
alpha TRAV21 TRAJ10 CDR3: CAVGGGGGNKLTF
beta TRBV11-2 TRBJ1-2 CDR3: CASSLLWVGDYGYTF
B18: 225 (TCR)
alpha TRAV12-2 TRAJ41 CDR3: CAVGNSGYALNF
beta TRBV11-2 TRBJ2-1 CDR3: CASLEGPGNEQFF
B19: 6319 (TCR)
alpha TRAV21 TRAJ22 CDR3: CAVKTSGSARQLTF
beta TRBV27 TRBJ2-3 CDR3: CASSSPPISVATDTQYF
B20: 8395 (TCR)
alpha TRAV21 TRAJ45 CDR3: CAGGGGADGLTF
beta TRBV6-6 TRBJ2-3 CDR3: CASSYPSPDTQYF
B21: 11195 (TCR)
alpha TRAV19 TRAJ32 CDR3: CALRYGGATNKLIF
beta TRBV7-6 TRBJ1-2 CDR3: CASSLEGPYGYTF
B22: 5170 (TCR)
alpha TRAV12-3 TRAJ33 CDR3: CAMRSNYQLIW
beta TRBV6-1 TRBJ1-5 CDR3: CASSEAQGPQHF
B23: 2495 (TCR)
alpha TRAV19 TRAJ23 CDR3: CALRIYNQGGKLIF
beta TRBV5-1 TRBJ2-1 CDR3: CASSTGLAGMSSYNEQFF
B24: 4386 (TCR)
alpha TRAV14/DV4 TRAJ10 CDR3: CAKAGGGNKLTF
beta TRBV7-6 TRBJ2-1 CDR3: CASSLTTGQGPHNEQFF
B25: 11751 (TCR)
alpha TRAV21 TRAJ49 CDR3: CAVRPPGNQFYF
beta TRBV6-4 TRBJ2-1 CDR3: CASSPVGTQGYNEQFF
B26: 4160 (TCR)
alpha TRAV35 TRAJ21 CDR3: CAGLYNFNKFYF
beta TRBV19 TRBJ1-1 CDR3: CASSTLRGDNRGTEAFF
B27: 5458 (TCR)
alpha TRAV29/DV5 TRAJ47 CDR3: CAATGGNKLVF
beta TRBV5-5 TRBJ2-7 CDR3: CASSHPLGVSSYEQYF
B28: 11253 (TCR)
alpha TRAV21 TRAJ40 CDR3: CAVRGGFGSGTYKYIF
beta TRBV28 TRBJ1-2 CDR3: CASRTTRANYGYTF
B29: 7156 (TCR)
alpha TRAV29/DV5 TRAJ49 CDR3: CAASGGNQFYF
beta TRBV5-5 TRBJ2-2 CDR3: CASSAPGGVDTGELFF
B30: 8483 (TCR)
alpha TRAV21 TRAJ20 CDR3: CAVYFRSNDYKLSF
beta TRBV20-1 TRBJ2-7 CDR3: CSATGTVNYEQYF
B31: 11085.2 (TCR)
alpha TRAV2 TRAJ6 CDR3: CAVEDPAGGSYIPTF
beta TRBV20-1 TRBJ2-7 CDR3: CSARGATGDFYEQYF
B32: 297 (TCR)
alpha TRAV12-2 TRAJ33 CDR3: CAVSQGGVSNYQLIW
beta TRBV29-1 TRBJ2-7 CDR3: CSVFTGWPYEQYF
B33: 509 (TCR)
alpha TRAV12-1 TRAJ36 CDR3: CVVTDLFF
beta TRBV27 TRBJ2-2 CDR3: CASSPRTGVAGELFF
B34: 7100 (TCR)
alpha TRAV21 TRAJ43 CDR3: CAVRGGDMRF
beta TRBV6-6 TRBJ2-7 CDR3: CASTNRGDISYEQYF
B35: 11949 (TCR)
alpha TRAV35 TRAJ36 CDR3: CAGQLETGANNLFF
beta TRBV10-3 TRBJ2-3 CDR3: CAINPGTSGRWGTDTQYF
B36: 7094 (TCR)
alpha TRAV12-3 TRAJ33 CDR3: CAMRSNYQLIW
beta TRBV30 TRBJ2-7 CDR3: CAWRLQGAGEQYF
B37: 684 (TCR)
alpha TRAV38-1 TRAJ31 CDR3: CAFMKLGNNARLMF
beta TRBV10-3 TRBJ1-5 CDR3: CAISGPEINQPQHF
B38: 5469 (TCR)
alpha TRAV12-2 TRAJ53 CDR3: CAVNWGGGSNYKLTF
beta TRBV29-1 TRBJ2-7 CDR3: CSVGQGWPYEQYF
B39: 201 (TCR)
alpha TRAV19 TRAJ4 CDR3: CALSLSGGYNKLIF
beta TRBV6-6 TRBJ2-7 CDR3: CASSQGVIDEQYF
B40: 8915 (TCR)
alpha TRAV29/DV5 TRAJ49 CDR3: CAAWSRGTGNQFYF
beta TRBV20-1 TRBJ2-1 CDR3: CSARDRWEGRTNEQFF
B41: 7894 (TCR)
alpha TRAV5 TRAJ39 CDR3: CAQNAGNMLTF
beta TRBV27 TRBJ1-1 CDR3: CASSLAPNTEAFF
B42: 2058 (TCR)
alpha TRAV39 TRAJ49 CDR3: CAEGNQFYF
beta TRBV7-9 TRBJ2-1 CDR3: CASSLALAGRNYNEQFF
B43: 2123 (TCR)
alpha TRAV14/DV4 TRAJ43 CDR3: CAMRDLGDMRF
beta TRBV27 TRBJ1-2 CDR3: CASSFWDRRYGYTF
B44: 1735 (TCR)
alpha TRAV21 TRAJ11 CDR3: CAVTRGGYSTLTF
beta TRBV12-3 TRBJ2-1 CDR3: CASSLGTGGIDEQFF
B45: 66 (TCR)
alpha TRAV21 TRAJ41 CDR3: CAVQSSGSGYALNF
beta TRBV5-5 TRBJ2-7 CDR3: CASTKGTDSYEQYF
B46: 2722 (TCR)
alpha TRAV21 TRAJ45 CDR3: CAVRGADGLTF
beta TRBV6-6 TRBJ2-7 CDR3: CASTNRASDSYEQYF
B47: 5226 (TCR)
alpha TRAV21 TRAJ49 CDR3: CAVRGNQFYF
beta TRBV6-2 TRBJ2-1 CDR3: CASSYVVVQGVPYNEQFF
B48: 5245 (TCR)
alpha TRAV30 TRAJ34 CDR3: CGTEIRGKLIF
beta TRBV27 TRBJ1-5 CDR3: CASSLGFPNQPQHF
B49: 3155 (TCR)
alpha TRAV12-3 TRAJ33 CDR3: CAMRSNYQLIW
beta TRBV6-5 TRBJ2-1 CDR3: CASSYAQGAQFF
B50: 6548 (TCR)
alpha TRAV12-3 TRAJ33 CDR3: CASRSNYQLIW
beta TRBV6-1 TRBJ1-5 CDR3: CASSDAQAPQHF
B51: 386 (TCR)
alpha TRAV21 TRAJ52 CDR3: CAVRPGRGTSYGKLTF
beta TRBV19 TRBJ2-3 CDR3: CASSMGAGGAADTQYF
B52: 5576.2 (TCR)
alpha TRAV12-3 TRAJ49 CDR3: CAMKRDQFYF
beta TRBV6-2 TRBJ2-7 CDR3: CASRTIDLLAGEYEQYF
B53: 7734 (TCR)
alpha TRAV21 TRAJ29 CDR3: CAVRAGNTPLVF
beta TRBV6-2 TRBJ1-1 CDR3: CASSYTTGTVIPNTEAFF
B54: 763 (TCR)
alpha TRAV19 TRAJ32 CDR3: CALRYGGATNKLIF
beta TRBV7-6 TRBJ1-2 CDR3: CASSLEGVGGYTF
B55: 11151 (TCR)
alpha TRAV12-2 TRAJ53 CDR3: CAVNSGGSGGSNYKLTF
beta TRBV29-1 TRBJ2-7 CDR3: CSAQQGWPYEQYF
B56: 10813 (TCR)
alpha TRAV3 TRAJ45 CDR3: CAVRDSGGGADGLTF
beta TRBV29-1 TRBJ2-2 CDR3: CSVPGLVFPGELFF

The experiment concerns the target T1, A*01/LTD peptide on A*01/LTD (human).
T1 peptide: LTDEMIAQY
Kind of experiment: activation reporter or marker.
With B1, the binding result is “recognises”. Consider B2, for which the binding result is “recognises”. On to B3, for which the binding result is listed as “recognises”. For B4, the binding result is reported as “recognises”. Next, B5: “recognises”; B6: “recognises”; B7: “recognises”.

Regarding B8, the binding result is given as “recognises”.

Take B9: the binding result is recorded as “recognises”. Next, B10: “recognises”. Next, B11: “recognises”; B12: “recognises”. Regarding B13, the binding result is given as “recognises”. Regarding B14, the binding result was “recognises”. As for B15, the entry is “recognises”; as for B16, “no recognition”; as for B17, “recognises”. Next, B18: “recognises”.

B19: the binding result is reported as “recognises”.

Regarding B20, the binding result is recorded as “recognises”. For B21, the binding result is “recognises”. As for B22, the entry is “recognises”; as for B23, “recognises”. Consider B24, for which the binding result is on record as “recognises”.

With B25, the binding result is given as “recognises”. In the case of B26, the binding result is reported as “recognises”.

Take B27: the binding result was “recognises”.

As for B28, the binding result is on record as “recognises”. As for B29, the entry is “recognises”; as for B30, “recognises”.

For B31, the binding result is “recognises”. As for B32, the entry is “recognises”; as for B33, “recognises”. Turning to B34, the binding result is given as “recognises”. Next, B35: “recognises”; B36: “recognises”. Next, B37: “recognises”; B38: “recognises”. With B39, the binding result was “recognises”. On to B40, for which the binding result was “recognises”. As for B41, the entry is “recognises”. Next, B42: “recognises”; B43: “no recognition”. For B44, the binding result is “recognises”. Next, B45: “recognises”; B46: “recognises”. As to B47, the binding result is given as “recognises”. On to B48, for which the binding result is “recognises”. In the case of B49, the binding result was “recognises”.

Take B50: the binding result is recorded as “recognises”. Next, B51: “recognises”; B52: “recognises”. As for B53, the entry is “recognises”; as for B54, “recognises”. Turning to B55, the binding result is reported as “recognises”.

As for B56, the binding result is listed as “recognises”.
